Test results: the Human Domainome abundance scans (Beltran et al. 2025)
± gives the uncertainty stated by the source.

B1: E3 ubiquitin-protein ligase TRIM36, residues 208 to 252; numbered along this chain, Q9NQ86 (parent)
chain: KILMCPEHETERINMYCELCRRPVCHLCKLGGNHANHRVTTMSSA

Variants of: B1
Assay: abundance fitness (aPCA) (normalised: wild type 0, dead -1); higher = more abundant; growth selection in yeast, the domain comes from the species named
Conditions: Homo sapiens

Variant | abundance fitness
KILMCPEHETERINMYCELCRRPVCHGCKLGGNHANHRVTTMSSA [L27G] | -0.141 ± 0.043
KILMCPEHEDERINMYCELCRRPVCHLCKLGGNHANHRVTTMSSA [T10D] | -0.132 ± 0.087
KILMCPEHETERINMYCELCRRPVCHLCKLGGNHANHAVTTMSSA [R38A] | 0.021 ± 0.049
KILMCPEHETERINMYCELCRRPVCHLCKLGGNHANHRVTYMSSA [T41Y] | -0.29 ± 0.12
KILMCPEHETERINMYCELCRRPVCHLCKLGGNHANWRVTTMSSA [H37W] | -0.44 ± 0.054
KILMCPEHETERINMYCELCRRPVCHLCKNGGNHANHRVTTMSSA [L30N] | 0.042 ± 0.089
KILMCPEHENERINMYCELCRRPVCHLCKLGGNHANHRVTTMSSA [T10N] | -0.282 ± 0.17
KILMCPEHETERINMYCELWRRPVCHLCKLGGNHANHRVTTMSSA [C20W] | -1.16 ± 0.082
KILMCPEHETERINMYCELCRRPVCTLCKLGGNHANHRVTTMSSA [H26T] | -0.226 ± 0.068
KILMCPEHETERINMYCELLRRPVCHLCKLGGNHANHRVTTMSSA [C20L] | -0.591 ± 0.066
KILMCPEHETERINMYCELCRRPVCHLCKLGGNHANHRVTTMSSP [A45P] | 0.015 ± 0.099
KILMCPEHITERINMYCELCRRPVCHLCKLGGNHANHRVTTMSSA [E9I] | -0.042 ± 0.069
KILMCPEHETERINMYCELCRRPVCHLCKLGGNHANHRVTTMSSG [A45G] | 0.023 ± 0.062
KILMCPEHETERINMYCELCRRPVCHLCKLSGNHANHRVTTMSSA [G31S] | -0.007 ± 0.053
KILMCPEHETERINMYCELCRRPVCHLCKLGGNHANHRVTTMISA [S43I] | -0.272 ± 0.09
KILMCPEHETERINMYCCLCRRPVCHLCKLGGNHANHRVTTMSSA [E18C] | -0.209 ± 0.083
KILMCPEHETERINMYCELCRRPVCHLCVLGGNHANHRVTTMSSA [K29V] | 0.004 ± 0.054
KILMCPEHETERINMYFELCRRPVCHLCKLGGNHANHRVTTMSSA [C17F] | -1.21 ± 0.15
KILMCPEHETERINMYCELCRRPPCHLCKLGGNHANHRVTTMSSA [V24P] | -0.501 ± 0.064

Variant | abundance fitness
KILMCPEHETERINMYCELCRRPVCHLCKLGGNHANHRVTTFSSA [M42F] | -0.034 ± 0.15
KILMCREHETERINMYCELCRRPVCHLCKLGGNHANHRVTTMSSA [P6R] | -0.145 ± 0.049
KILMCPEHETERINMYCELCVRPVCHLCKLGGNHANHRVTTMSSA [R21V] | 0.01 ± 0.054
KILMCPEHETERINMYCELCRRPVCCLCKLGGNHANHRVTTMSSA [H26C] | 0.01 ± 0.065
KILMCPESETERINMYCELCRRPVCHLCKLGGNHANHRVTTMSSA [H8S] | -0.786 ± 0.068
KILMCPEHETERINMYCELCRRPVCHLCKLGGNHANHRVTTMSMA [S44M] | -0.138 ± 0.071
KILMCPEHETERINMYCELCRRPVCHICKLGGNHANHRVTTMSSA [L27I] | -0.041 ± 0.064
KILMCPEHETERINMYCELCRRPVRHLCKLGGNHANHRVTTMSSA [C25R] | -0.729 ± 0.054
KILMCPEHETERINMYCELCRRPVCHLCKLGENHANHRVTTMSSA [G32E] | 0.089 ± 0.052
KILMCPEHETERINMYCELCRRPVCHLCRLGGNHANHRVTTMSSA [K29R] | -0.025 ± 0.051
KILMCPEHETERINMYCELCRRPVCVLCKLGGNHANHRVTTMSSA [H26V] | -0.016 ± 0.061
KILMCPEHETERINMYCELCRRPVCHLCKLTGNHANHRVTTMSSA [G31T] | 0 ± 0.055
KIEMCPEHETERINMYCELCRRPVCHLCKLGGNHANHRVTTMSSA [L3E] | 0.163 ± 0.052
KILMCPEGETERINMYCELCRRPVCHLCKLGGNHANHRVTTMSSA [H8G] | -0.766 ± 0.055
KILMCPEHETERINMYCELCRRPVCHLCKLGGNHANHRDTTMSSA [V39D] | 0.079 ± 0.08
KILMCPEHETERINMYCELCRRPVCHLCKLGGNHANHRHTTMSSA [V39H] | -0.023 ± 0.088
KILMCPEHETERINMYCELCRRPVCHLCKLGGNHANHRVTTDSSA [M42D] | 0.039 ± 0.087
KILMCPEHETERINMYCELCRRPVVHLCKLGGNHANHRVTTMSSA [C25V] | -0.854 ± 0.059
KILMCPEHETERINMYCMLCRRPVCHLCKLGGNHANHRVTTMSSA [E18M] | -0.178 ± 0.094

Variant | abundance fitness
KILMCPEHETERINMYEELCRRPVCHLCKLGGNHANHRVTTMSSA [C17E] | -0.763 ± 0.079
KILMCPEHETERINMYCELCRTPVCHLCKLGGNHANHRVTTMSSA [R22T] | -0.09 ± 0.1
KILMCPEHETERINMYCELCRRPVCHLCKLGGNHANHRVTTYSSA [M42Y] | -0.134 ± 0.1
MILMCPEHETERINMYCELCRRPVCHLCKLGGNHANHRVTTMSSA [K1M] | -0.277 ± 0.073
KILMCPEHETERINMYHELCRRPVCHLCKLGGNHANHRVTTMSSA [C17H] | -0.656 ± 0.47
KILMCPEHETERITMYCELCRRPVCHLCKLGGNHANHRVTTMSSA [N14T] | 0.172 ± 0.1
KILMCPEHEEERINMYCELCRRPVCHLCKLGGNHANHRVTTMSSA [T10E] | -0.049 ± 0.064
KILMCPEHETERINMYCELCRRPVCHLCKLGGNHANHRNTTMSSA [V39N] | 0.057 ± 0.097
KILMCPEHETERINMYCELCRRPVCHLCKAGGNHANHRVTTMSSA [L30A] | 0.094 ± 0.05
KILMCPEHETERINMYCELCRRPVCHLCKLGGNHANHNVTTMSSA [R38N] | -0.002 ± 0.08
KILMCPEHETERINMYCELCRRPVCHLCKLGGAHANHRVTTMSSA [N33A] | 0.071 ± 0.056
KILMCPETETERINMYCELCRRPVCHLCKLGGNHANHRVTTMSSA [H8T] | -0.72 ± 0.075
KILMCPEHETERINMYCELCRRPVCHLCKLDGNHANHRVTTMSSA [G31D] | -0.109 ± 0.079
KILMCPEHETERINMYCELCRRPVCHLCKLGGNHANHRVTTMESA [S43E] | 0.083 ± 0.069
KILMCPEHETERPNMYCELCRRPVCHLCKLGGNHANHRVTTMSSA [I13P] | 0.166 ± 0.14
KILMCPEHETERINMYCELCRRPVCHLCKLGGNHAYHRVTTMSSA [N36Y] | -0.147 ± 0.089
KILMCPEHETERINMYCELCRRPVCHLCKLGGNHANHRVTTMSQA [S44Q] | -0.038 ± 0.069
KILMCPERETERINMYCELCRRPVCHLCKLGGNHANHRVTTMSSA [H8R] | -0.841 ± 0.059
KILMCPEHETERINMYCELDRRPVCHLCKLGGNHANHRVTTMSSA [C20D] | -0.393 ± 0.093
